# Assay results taken from paper PMC11479944.
# Key:
# [1] = molecular target: rat GluA2flip(Q) isoform, tagged with a FLAG epitope near its C terminus (rat)
# [2] = molecular target: GluA2 N-terminal domain (isolated GluA2 NTD) (rat); assay: SEC-MALS; GluA2 NTD injected at 13 mg/mL and 1 mg/mL (legend; the text says 1-2 mg ml^-1), 100 µl samples, Superdex S200 10/300, 10 mM HEPES, 150 mM KCl, pH 7.5; only dimers seen, no step from dimers to tetramer
stoichiometry N [2],Substance,"recovery from desensitization, patch-clamp recordings of GluA2 expressed in HEK293 cells, switching from pH 7.4 to pH 5.5 (pH 6.4 also tested) [1] [fold]"
,"rat GluA2flip(Q) isoform, tagged with a FLAG epitope near its C terminus (receptor)",2
2,GluA2 N-terminal domain (isolated GluA2 NTD) (domain or fragment),
